The values below come from the supplement of paper PMC12636428.

This series relates to Saccharomyces cerevisiae. In words: transcriptional activation domain activity (GFP:mCherry ratio, weighted mean of sorted bins, harmonized to initial dataset scale) (arbitrary fluorescence ratio units); higher = stronger transcriptional activation. The settings on record: beta-estradiol 1 µM; induction time 4 h. In outline: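 In diploid yeast carrying a GFP reporter, barcoded protein tiles fused to an estradiol-inducible synthetic transcription factor were integrated at the URA3 locus. Cultures diluted 1:5 into SC with 1 uM beta-estradiol were kept at 30 °C for 4 hours, then sorted by GFP:mCherry ratio into 8 bins before barcode sequencing. Tiles with under 50 reads were excluded. The activation activity reported here is the read-weighted mean of bin median fluorescence, averaged across barcodes and linearly rescaled to the initial dataset.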

For “TSTSGGSLFGGGSTAAPSTGSGGLFGNNSSTPATGAQPGTSLFGKPAGGATAG”, the “transcriptional activation domain activity” value came to 14200.
Turning to “LYKSYKHAFHDWIYRLYYYLYHCLVELGLSSAAVDIFRACLPSVKMGNIALTY”, the “transcriptional activation domain activity” value turned out to be 63000.
The same measure for “MISPIFPRNLIIHNITFSMLFSFFSFLFYTLYALFNFPVPFFLSSILTPLNIF”: 71200.
The same measure for “KLWAKRRAIYSNVMGFLGGVAWAMLTARVCQLYPNACAASIVNRFFRIMYQWN”: 49800; for “KISALCCVLSVFKIDDLVNDPILNKVLHLNNIYLDVLISLILRNNQPTIELMV”: 57900.
“MLLTVYMFIIVFSFFICYHYINLVLQILIAGLLYGLSYVRFSMNWIIYFYNQC”: the “transcriptional activation domain activity” value came to 78400.
As for “IELRARVFNYSNMHALKRCTFRLNRFETAFNFKLLWLFFVYYTRGIEVNRRNL”, the “transcriptional activation domain activity” value was 58600.
As for “CVFDMPCLWYGVYLVWFGVFSYLLLWCFALGAYYSSTVWSILWLIAAGSWCRQ”, the “transcriptional activation domain activity” value came out at 73300.
The value for “KDRKEKAEEKSGEEDRGKREDGAAEGEEREEVKRSAARKPKTVPAAASKKRPK” was 34600.
Take “SSACASRSSPSSSCGSPSTSCAGAAARASPPRRCSARPCPRRRRAASPTASTS”: the “transcriptional activation domain activity” value came out at 10100.
On to “MFVCTSQSFIRSMGLYGFYLTGLMMTLLVVVVSLTFIQYPTIVILTLFHCLIS”, for which the “transcriptional activation domain activity” value was found to be 44800.
The same measure for “MRIFVFFSLLFLFFFCYMYYICLLLFCTLQTYIFILYHIIPYSILIYIYYISN”: 59200.
The same measure for “KPAGIMMFYFPCLYGTFLVGCLGHEINILSMAIANAKLFLLSFLMRGMLCTWN”: 43200; for “NVSPGTTDAGPWMRAIEELAGTGVYEHLGYGWKGWLFWLRDRSFCNMLMTGIW”: 54200; for “LLRSRAYDDPAVFRIISALFQVPMRHKKNSVRGLLCVVWRVITWVYFQPRLPW”: 54600.
The value for “MPQSLTCRSASIIATQDCFDVIIFRLRFLLDIARGTLLLFRDHGRALTPFGRP” was 51100; that for “KMLLDHIKKFVITYTGGLVLACDISRYHEVIVQFKSVQVDEYFNVLKEICSLF” was 53900.
On to “CKAHCGYILGHINIFQPINWIFVISSKVFPIDYVLYLLLILFFFSASVVGIAT”, for which the “transcriptional activation domain activity” value was 51900.
The same measure for “LELPDNLDNADFSKLLEFDAKNDEALFNSNELLSHTMDPVNNIDLTHDHSREV”: 93000; for “KNDDRGDRGERRSRSRRRRHSVTGVDRESRAESKHRDPKHRKHRIAEAGAASA”: 41500.
As to “LLFFSLSLFKKKYLPFILFFFFFYSSLFFFFYPFLFNFFSFFLIFFFFFSLQV”, the “transcriptional activation domain activity” value stood at 34300.
As to “FLVRLFVLPVTLCMLYRCSVSLDLSRLNGSARNEWFNYWNKALLLGMTLFSMR”, the “transcriptional activation domain activity” value is 62500.
As to “THHAFPLRLLVAIVVLLDCHSLLQIALGTCTWAISYHVRPFALTTVILCCSIT”, the “transcriptional activation domain activity” value turned out to be 41300.
In the case of “CHLLLVCLFYDFLTIEYYLYGSLLLLLLHDCFLLKICEFIVRPTCLPGLFHAK”, the “transcriptional activation domain activity” value amounted to 60500.
The value for “DADMIVRLALKARLRWLLPKLTWLRIYFDGLYSNGDVLRVLILPKLLHLLIMC” was 66000; that for “LHQSGITHVYYLVENYSKQILLSHFLLNDISFRGWIMLLRNMSFRSIRHCQST” was 54800; that for “GGETAAPPAEPAPAPAAEPEEEEEPVKGKGKGGKGGKKGGKGGKKAKKEEVPA” was 23600.
The value for “SGNPPNVVMPPIVCPYSPIIIISYVVTYFFLHHFGGLIGWLQFLSLLLQSLMV” was 51000; that for “HHLRLHWFADVLNYRARDTLFSILRIVSHIRSLRLFAVYLLRWERQRHEAKTV” was 49800; that for “ALYGLQAVVFVVIPLLQIIQIALILCQFFVANYFTIFSFVNVLFIIVAVFAFL” was 41400.
Take “DGVKGWAVGVVVAGPFMAGLIKLIRWAGDSFVAYVVVFLFVFQLVAMTLYPTL”: the “transcriptional activation domain activity” value was found to be 19000.
The same measure for “VANHQIYADWLYVWCLTYFMGMHKDVLIVLKRSLKWVPVLGWGMQIFRFIFLA”: 70100; for “PPLSSPFLCFPLCFPLPPLPLFPPSPLFPLSSPPSLFPFPPLPLFNPFLPSLC”: 29800; for “EVMKIMPVQKQTRAGQRTRFKAFVVIGDSEGHVGLGVKCAKEVATAIRGAIIL”: 56900.
The same measure for “DSKLRATALQVRRGGNCPNTVEVLQQLLLSGGGLDTSSSQTQQVSAADAAAVT”: 33300.
Consider “PVPAKEPAAVEAPEKEVAEEAKLEDGEIADEAKADDSAEEKPADGAAAAAAAP”, for which the “transcriptional activation domain activity” value is 34700.
Turning to “DPTKSVSAYWVPGGDYISPALQILMNEYLLSFCPTITLPQSLILVSKYFGFLL”, the “transcriptional activation domain activity” value worked out at 60700.
In the case of “FQNISNTILDISLSHGKVPNMDQLTRELFGASDSYQDILDENNVDVSWVDKLV”, the “transcriptional activation domain activity” value came out at 103000.
As to “QTTLRAVVSSKEAGVIIGKGGKNVADLRDETGVKAGVSKVVQGVHDRVLTITG”, the “transcriptional activation domain activity” value was 51200.
The value for “RQLAWECLHHCSVQLRPSGATIRDSLRAAAHYVKHLAIQHKLVLVALQPFFAY” was 43100; that for “ENNVPLLERFREFPWLLSDLIFPFMMEYMLVWYLIWETILNILAELTYFADRS” was 27300; that for “REARRHADEEARRRQARQEARRHADEEARRRQEEELARQEARRHADEEARRRQ” was 27000.
The value for “KKAKAGDEDEEGGADKASPKKGAKRGRKQVEDEDEDESEEVQPKAKRAKKAVV” was 24800.
The value for “ESDEPEQQRAKSQSRRRQSRGRGRKGGSESEAERSDVSASGGGRRNRQRQKKQ” was 9900; that for “PLYPTTRCIFFFYRFLLYVVHLNMSLLMHSFFFVLLQACRGWMSLFLLLSLLF” was 47900; that for “SMNYISITAPIYDRGPDSTCLLGSTVCSYFDYDTWTLSLTLWVLIQLTWSMFL” was 60800.
Take “TLPGGTTGEFGRDRPTTNAFGSSTGAFGAPAANNNPFGAPAQPAGAFGQPSAL”: the “transcriptional activation domain activity” value worked out at 44800.
The same measure for “PPSLVDLVANTIAACHSETTPETVSLQIVKALLSLVLSSTILVHHSSLLKAVR”: 50700.
The value for “EIKGDLTMTNLVTNFGFSIRWTHNLFEHLSIDWVGRVITIYEDKICLWNHLRF” was 43500.
With “AKQGEDDAEKSKRGRKRKESETLEANGEEAGDDAEPAAKKAKPASKPASKAAA”, the “transcriptional activation domain activity” value came out at 30100.
Consider “GLNLPKISASYLCQYRGSLIGKHFKAIVQLMCFLCYDLLPAPLLNAWLILGRL”, for which the “transcriptional activation domain activity” value was 70900.
With “EKEKERKHKHRSRRDRSRSRDSDGGRDRRHRHRRDRSRSRDAHDDRERRHRHS”, the “transcriptional activation domain activity” value is 19000.
Regarding “RLVVLYGASRIVVAIKRAHGGFDYTRRLSDEEPMVRIMTVVVSYSRLILISVY”, the “transcriptional activation domain activity” value turned out to be 53300.
Regarding “MAFLYLELPLVGMTFGGGRRGWGFMYLFLFLSFSFFFIQLWFGLVWVMTLCEV”, the “transcriptional activation domain activity” value amounted to 63600.
For “MLQVALYMRSSSLIISIWPRLSCSRFLLVLQLIVFSFHCQLVYSIYLMLLAFS”, the “transcriptional activation domain activity” value was determined as 58300.
